Results from article PMC10993987 (Molecular Cancer Therapeutics, 2023).

T1: His-tagged Fc-fused human IL12Rβ2 (human, UniProt Q99665 24-622)
T1 sequence (looked up): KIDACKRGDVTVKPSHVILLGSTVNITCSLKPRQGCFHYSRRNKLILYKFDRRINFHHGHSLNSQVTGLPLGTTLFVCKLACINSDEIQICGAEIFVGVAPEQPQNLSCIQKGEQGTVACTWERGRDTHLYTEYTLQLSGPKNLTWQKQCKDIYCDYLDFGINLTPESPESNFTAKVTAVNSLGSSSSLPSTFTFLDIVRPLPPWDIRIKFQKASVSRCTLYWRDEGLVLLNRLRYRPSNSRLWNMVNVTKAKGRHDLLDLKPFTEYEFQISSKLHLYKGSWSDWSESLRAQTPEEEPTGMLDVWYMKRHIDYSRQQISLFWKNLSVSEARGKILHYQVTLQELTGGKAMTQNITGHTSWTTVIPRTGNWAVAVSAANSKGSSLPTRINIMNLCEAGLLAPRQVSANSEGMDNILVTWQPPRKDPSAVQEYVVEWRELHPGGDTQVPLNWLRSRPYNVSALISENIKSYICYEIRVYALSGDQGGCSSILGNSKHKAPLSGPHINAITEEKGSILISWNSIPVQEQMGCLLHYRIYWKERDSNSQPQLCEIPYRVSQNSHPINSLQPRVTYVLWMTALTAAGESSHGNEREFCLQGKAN


Experiments:
[1] = target: His-tagged Fc-fused human IL12Rβ2 (human) (UniProt Q99665); experiment: SPR
[2] = target: T1, His-tagged Fc-fused human IL12Rβ2; experiment: SPR

Kd [1] [nM]	Kd [2] [nM]	Molecule
7.97		proteolytically cleaved XTX301 (active IL12 released from XTX301) (ligand)
	0.93	wild-type recombinant human IL12 (complex) chain 1: RNLPVATPDPGMFPCLHHSQNLLRAVSNMLQKARQTLEFYPCTSEEIDHEDITKDKTSTVEACLPLELTKNESCLNSRETSFITNGSCLASRKTSFMMALCLSSIYEDLKMYQVEFKTMNAKLLMDPKRQIFLDQNMLAVIDELMQALNFNSETVPQKSSLEEPDFYKTKIKLCILLHAFRIRAVTIDRVMSYLNAS chain 2: IWELKKDVYVVELDWYPDAPGEMVVLTCDTPEEDGITWTLDQSSEVLGSGKTLTIQVKEFGDAGQYTCHKGGEVLSHSLLLLHKKEDGIWSTDILKDQKEPKNKTFLRCEAKNYSGRFTCWWLTTISTDLTFSVKSSRGSSDPQGVTCGAATLSAERVRGDNKEYEYSVECQEDSACPAAEESLPIEVMVDAVHKLKYENYTSSFFIRDIIKPDPPKNLQLKPLKNSRQVEVSWEYPDTWSTPHSYFSLTFCVQVQGKSKREKKDRVFTDKTSATVICRKNASISVRAQDRYYSSSWSEWASVPCS
